Test: yeast display, Sf9 membrane polyspecificity reagent, FACS + sequencing; frameworks hold sequencing errors
How it was run: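 Synthetic nanobody libraries on Saccharomyces cerevisiae BJ5465 were galactose-induced for 36–48 hours, stained 1 hour at 4 °C with 10% biotinylated, detergent-solubilized Sf9 membrane reagent and enriched on streptavidin microbeads. FACS then separated cells into low and high (top ~1%) gates by anti-HA (expression) and streptavidin (reagent binding) fluorescence. Genes were colony-PCR amplified, MiSeq 2 × 250 sequenced and CDR-length filtered. A clone's polyreactivity label is that of its gate of origin.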

| Sequence | polyreactivity (PSR sort gate) |
| --- | --- |
| QVQLVESGGGLVQAGGSLRLSCAPSGNIFGYYVMAWYRQAPGTERELVAAITWSAGTTNYADSVKGRFTISRDNAKNTVYLQMNSLKPEDTAVYYFAVTWWYQDYDLTWYLYDYWGQGTEVTVSS | low polyreactivity |
| QVQLVESGGGLVQAGGSLRLSCAPSGRIFGTYAMGWYRQAPGKERELVASIRSRGGRTYYADSVKGRFTISRDNAKNTVYLQMNSLKPEDTAVYYCAADVGVYYYSFYYWGQGTQVTVSS | high polyreactivity |
| QVQLVESGGGLVQAGGSLRLSCAPSGRIFRYYAMGWYRQAPGKERELVATIRSGGSTNYADSVKGRFTISRDNEKNTVYLQMNSLKPEDTAVYYCAATGGILSTYDYWGQVTQVTVSS | high polyreactivity |
| QVQLVESGGGLVQAGGSLRLSCAPSGRIFSYNTMGWYRQAAGKERELVAAISSSGGSTYYADSVKGRFTISRDNAKNTFYLQMNSLKPEDTALYYCNAVGRFSTRREYWGQGTQVTVSS | high polyreactivity |
| QVQLVESGGGLVQAGGSLRLSCAPSGRIFYPYAMGWYRQAPGKERELVAAISSRGDSTYYADSVKGRFTISRDNAKNTVYLQMNSLKPEDSAVYYCAAVYGSFPTRLYYWGQGTQVTVSS | high polyreactivity |
| QVQLVESGGGLVQAGGSLRLSCAPSGRNFWYYGMVWYRPAPGRERELVAAISRSGGRTSYADSVKGRFTISRDNAKNTVYLQMNSLKPEDTAVYYCATDGYYRYGYWGQGTQVTVSS | high polyreactivity |
| QVQLVESGGGLVQAGGSLRLSCAPSGRNYDRNAMGWYRQAPGKERELVARIDPGDDTNYADSVKGRFTISRDNAKNTVYLQMNSRKPEDTAVYDCASDPDYFLYRTAYYEFDYWGQGTQVTVSS | low polyreactivity |
| QVQLVESGGGLVQAGGSLRLSCAPSGRTFRTNTMGWYRQAPGKESELVAAINWRGGSTYYADSVKGRFTISRDNAKNTVYLQMNSLKPEDTAVYYCNAQQGRYKYSGRYDYWGQGTQVTVSS | low polyreactivity |
| QVQLVESGGGLVQAGGSLRLSCAPSGRTFSENAMGWYRQAPGKERELVAAISGSGGRTYYADSVMGRFTISRDNAKNSVFLQMNSLKPEVTAVYYCAKVTRYGSTYDYWGQGTQVTVSS | high polyreactivity |
| QVQLVESGGGLVQAGGSLRLSCAPSGSIFGVYAMGWYRQAPGKERELVAAISSRGSSTYYADSVKGRFTISRDNAKNTVYLQMNSLKPEDTAVYYCAARPGIRSYPPGYGYWGQGTQVTVSS | high polyreactivity |
| QVQLVESGGGLVQAGGSLRLSCAPSGSIFNYNIGSYRQAPVKERELVAAVSTNYADSVKGRFTISRDNAKNTVYIQMNSLKPADSAVYYCGVTPEKSCDEYDYWGQGTQVTVSS | low polyreactivity |
| QVQLVESGGGLVQAGGSLRLSCAPSGSIFPYYAMGWYRQAPGKERELVAAISGSDGTTYYADSVKGRFTISRDNAKNTVYLQMNSLKPEDTAVYYCAVELPELYYYFAYEYWGQGTQVTVSS | high polyreactivity |
| QVQLVESGGGLVQAGGSLRLSCAPSGSIFVKNAMGWYRQAPGKERELVAFITIRTATTYYADSVKGRFTISRDNAKNTVYLQMNSLKPEDTAVYYCAAAKRQRGYLQREGNYWGQGTQVTVSS | low polyreactivity |
| QVQLVESGGGLVQAGGSLRLSCAPSGSILRSYDMGWYRQAPGTERELVAAISSSGGSTYYADSVKGRFTISRDNAKNTVYLQMNSLKQEDTAVYYCAAATSRRFDYWGQGTQVTVSS | high polyreactivity |
| QVQLVESGGGLVQAGGSLRLSCAPSGSTFARNAMGWYRQAPGKERDLVAAIATSGGRTYYADTVKGRFTISRDIAKNTVYLQMNSLKAEDTAVYYCAAAFSLGMYWGQGTQVTVSS | high polyreactivity |
| QVQLVESGGGLVQAGGSLRLSCAPSGSTFPRNAMGWYRQAPGKERELVAAISYSGGRTYYADSVKGRFTISRDNAKNTVSLQMNSLKPEDTAVYYCAAQPWFTYYYWGQGTQVTVSS | high polyreactivity |
| QVQLVESGGGLVQAGGSLRLSCAPSGSTFQYNAMGWYRQAPGKEREFVAAISWRGGNTYYADSVKGRFTISRDNAKNTVYLQMNSLKPEDTAVYYCAAGRQRYAFKYYYWGQGTQVTVSS | high polyreactivity |
| QVQLVESGGGLVQAGGSLRLSCAPSGSTFYRYSMGWYRHAPGKERELVAAINGGDITNYADSVKGRFTISRDNAKNTVYLQMNSLKPEDTAVYYCAARYTYWGLLRYDYWGQGTQVTVSS | high polyreactivity |
| QVQLVESGGGLVQAGGSLRLSCAPSGYIFAPNAMGWYRQAPGKERELVAAITFSGGSTSYADSVKGRFTISRDNAKNTVYLQMNSLKPEDTAVYYCAAYWYSLYYLFPYDYWGQGTLVTVSS | low polyreactivity |
| QVQLVESGGGLVQAGGSLRLSCAPSGYIFPEYVMGWYRQSPGKERELVAVITWDGTSTYADSVKGRFTISRDNAKNTVYLQMNSLIPVDTAVYYCAADTNYYVDTAGYGDGLDSWGQGTQVTVSS | low polyreactivity |
| QVQLVESGGGLVQAGGSLRLSCAPSRRIFSIYALGSYRQAPGKESELVAAIRWSGGSTYYADSVKGRFTISRDKEKNTVYLQMNSLTPEDTAVYYCNRYYQSYYGWTGPYGYWGQGTQVTVSS | high polyreactivity |
| QVQLVESGGGLVQAGGSLRLSCAPSRSTFWRYAMGWYRQAPGKERELFARISWSAGSTYYADSVKGRFTISRDNAKNTVYLQMNRLKPEDSAVYYCAAQPYKYSGRYQSKPYLLLYDYWGQGTQVTVSS | high polyreactivity |

| Sequence | polyreactivity (PSR sort gate) |
| --- | --- |
| QVQLVESGGGLVQAGGSLRLSCASSGFIFRHYAMGWYRQAPGKARELVAVINWSGSSTYYADSVKGRFTISRDNAKNTVYLQMNSLKPEDTAVYYCAVRSLRVDKYGYWGQGTQVTVSS | high polyreactivity |
| QVQLVESGGGLVQAGGSLRLSCASSGFNFVYYSMGRYRQAPGKEREFVAAITERGGSTDYADSVKGRFTISRDHAKNTVYFQMNSLKPEDTAVYYCIARDVTLWDDVYQQDGSGYWGQGTQVTVSS | low polyreactivity |
| QVQLVESGGGLVQAGGSLRLSCASSGFTFIYYAMGWYRQAPGKERELVAAISGSGSTYYADSVKGRFTISRDNAKNTVYLQMNSLKPEDTAVYYCAADVTGGRKYDYWGQGTQVTVSS | low polyreactivity |
| QVQLVESGGGLVQAGGSLRLSCASSGFTFRYYTMGLYRQAPGKERELVASITWRGGSTYYADSVKGRFTISRDNAKNTVYLQMNCLKPEDTAVYYCNAERPYQYYPGIYRWYYYWGQGTQVTVSS | low polyreactivity |
| QVQLVESGGGLVQAGGSLRLSCASSGFTFYTNDMGWDRQAPGKERELVAAITWSGGSTYYADSVKGRFTISRDNAKNTVYFQMNSLKPEDTAVYYCAASIGQVTQRRYGTRYYYWGQGTQVTVSS | high polyreactivity |
| QVQLVESGGGLVQAGGSLRLSCASSGFTLVGYAMGWYRQAPGKERELVAAISYRGGSTYYADSVKGRFTISRDNAKNTVYLQMNSLKPEDNAVYYCAATYQGSSRSRGYWGQGTQVTVSS | high polyreactivity |
| QVQLVESGGGLVQAGGSLRLSCASSGIIFAQYTMGWYRQEPGKERELVAAINRNGGSTYYADSVKGRCTISRDNAKHTVYLQMNSLKPEDTAVYYCTKDIERYVRIYDSWGQGTQVTVSS | low polyreactivity |
| QVQLVESGGGLVQAGGSLRLSCASSGIIYNQNTMGWYRQAPGKERELVAAITFSGGRTSYADSVKGRFTISRDNAKNTFYLQMNSLKPEDSAVYYCNKALWGLYGYWGHGTQVTVSS | low polyreactivity |
| QVQLVESGGGLVQAGGSLRLSCASSGLTFALYAMGWYRQAPGKEREFVAAITGSGGSTYYADSVKGRFTISRDNAKHTVYLQMNSLKPEYTAVYYCNKLFYRWRIVDKYYYWGQGTQVTVSS | high polyreactivity |
| QVQLVESGGGLVQAGGSLRLSCASSGLTFGGYTMGLSRQAPGKERELVAAITSGGSTYYADSVKGRFTISRDNAKNTVYLQMNSLKPEDTAVYYCAARVRGWPVSKFGYWGQGTQVTVSS | high polyreactivity |
| QVQLVESGGGLVQAGGSLRLSCASSGLTSYSAMGWYRQAPGKERELGAAIDGSDGNTYYADSVKGRFTISRDNAMNTVYLQMKSLKPEDTAVYYCNAETVRYWWSWENDYWGQGTQVTVSS | high polyreactivity |
| QVQLVESGGGLVQAGGSLRLSCASSGNIFDIYAMGWYRQAPGKERELVAAITSSGGSTYYADSVKGRCTISRDNAKNTVYLQMNSLKPEDTAVYYCNAVSLVQKGDYWGQGTQVTVSS | high polyreactivity |
| QVQLVESGGGLVQAGGSLRLSCASSGNIFDRYAMGRYRPAPGKERELVAGITWSGGSTNYADSVKGRFTISRDNAKNTVYLQMNSLKPEDTAVYYCGQANYYWGQGSQVTVSS | low polyreactivity |
| QVQLVESGGGLVQAGGSLRLSCASSGNTFIENAMGWYRQAPGKERELVAAIDTGGSTYYADSVKGRFTISRDNAKNTVYLQMNSLKPEDSAVYYCTAVGLYLYRYIFGYLGKIGPGYDYWGQGTQVSVSS | low polyreactivity |
| QVQLVESGGGLVQAGGSLRLSCASSGPIFVYKVKGWYRQAPGKERELVAAISWGTGSTYADSVKGRFTISRDNAKNTVYLQMYSLKPEDTAVYYCAAESFIPPYDHWGQGTQVTGSS | low polyreactivity |
| QVQLVESGGGLVQAGGSLRLSCASSGRIFDGNAMGWYRQAPGKERELVAAISWTGGSTYYADSVKGRFTISRDNAKNTVYLQMYSLKPVDTAVYYCAADSGWWLDQWSWYDYWGLGTQVTVSS | low polyreactivity |
| QVQLVESGGGLVQAGGSLRLSCASSGRIFDSNTMGWYRQAPGKERELVAAINWSDGSTYYADSVKGRFTISRDNAKYTVFLQMNSLKPEDTAVYYCNAGARRYLYDYWVQGTQVTVSS | low polyreactivity |
| QVQLVESGGGLVQAGGSLRLSCASSGRIFGGYAMGWYRQAPGTELELVAAISSGGSTYYADSVKGRFTISRDNAKNTVYLQMNSLKPEDTAVYYCYAYYPWRWGSYPFDYWGQGTQVTVSS | high polyreactivity |
| QVQLVESGGGLVQAGGSLRLSCASSGRIFSWYTMGWNRQAPGKVSELVPVITSGGTTKYADSEKGRFTISRDNAKNTVYLQMNSLKPEDTAVYYCNVAGRDYAVRWGSFDYWGQGTQVTVSS | low polyreactivity |
| QVQLVESGGGLVQAGGSLRLSCASSGRIFWRNAMGWYRQAPGKERELVAAITSGGRTNYADSVKGRFTISRDNAKNPVYLQMNSLKPEDTAVYYCNALWRGRYGYWGQGTQVTVSS | high polyreactivity |
| QVQLVESGGGLVQAGGSLRLSCASSGRIFWTYAMGWYRQAPGKERELVAAITSGGSTYYADSVKGRFTISRDKAKNTVYLQMNSLKPEDTAVLYCAATSYYYNFLEHDYWGQGTQVTVSS | high polyreactivity |

Source: the nanobody polyreactivity screen of Harvey et al. (2022)
